Experiment: soluble on expression in E. coli; label from the status in PepcDB or PDB records

Row | Sequence | soluble on expression in E. coli
1 | MKKKPLTPEQLDDAKRLKELFNAKKKALGISQESVAHELGVGQSAVNQFLNGVNPLNITNAAAFAKVLNEPISSFSPSLAKELAKMAESLSITTRSGAKDKPAVSVANSYPLISWISAGNWYEAIEPYTLRDIEIWPESTKHAHESAFWLSVKGDSMTSPSGISFPEGMIILVDPEKEPMPGNFVIAKLTDDNEATFKKLVVDAGIKYLKPLNPAYRLIELNGNCKILGVVVDARWLQID | not soluble
2 | MGSDKIHHHHHHMPSRRGFLAGLLASSVTPTATWADVGAPAYLSAGKDALGLFVMAGLSAAGEVLFRHPLPDRGHAASAHPTRPEAVAFARRPGRFADVIDCRSGAQLARLEPPEGHHFYGHGVFSPEGEVLYTTENDYARGAGVIGVWNAGDYHRIGQFSSGGIGPHEMLLRRDAPGLVVANGGIETHPESGRAKLNIPFMRPNLSYLRLSGEIQHQMELPADLHKNSIRHIAVRSDGAVGFAMQWQGDLGADVPIVGLHQPGSAPRLMAEDDPRLRNLNGYGGSIAFSGDETAIAVTSPRGGVVQVMDCTSGALQAEHALSDVCGLAPLKDGFLVSTGTGIMAQIGTEVTTLTQAPLAWDNHLIALSSAASAPRQP | not soluble
3 | MSTYYQSAPVLVHAHAYQPPLSPPQSPPHGYLPFYTSNPMMCSTSPLYFSPQMVQPLPPQQHYHMYPSTSAGPGMYYTDFNPHYVQIQISQSVSHDKILAGGPKDNCTVARGRKTHVDHRQLSIEKLHPLLLQFKLTTSELETNAYPMRRDGSTKAVSIADTVYTQNKKMFLDDYDMSRNCSRCNKEFKLSPNGTMIRSTGICRYHNRGVAINGKRDTFRKRYSCCNEEFNVALGCKFSDVHVTDQLFKKELSTFVSTPVPVPNDQRSTRVYALDCEMVYTIAGPALARLTMVDMQRNRVLDVFVKPPTDVLDPNTEFSGLTMEQINSAPDTLKTCHQKLFKYVNADTILIGHSLESDLKAMRVVHKNVIDTAILFRSTRDTKVALKVLSAKLLHKNIQGDNEDAIGHDSMEDALTCVDLIFYGLRNPESIAIREANTNC | not soluble
4 | MGSDKIHHHHHHMKEYDKLSIRLVQILSKFNNGESLSAQELAQEFNVDTRTIQRDLNERLTFMPIKKENGRYVLESFALGKLSFKDIQNFATLSGIAELYPKLDQGFIVDLLSHRVNKVLMVKNEGFQKVDYELFKDLSVAILKHNVLNFFYKEKERQIKPYKLVNYKGIWYLLGDENDKLKHFNLDKISKLRTKNENFIPNEKLEEQIQNDPNIWLGESKEVILKLDKNAKEYFFRKEILSNYQIIDKDETSYTLSTQVSYEDEILHLVKQWIPYIKILAPIELKIRLEDILKSYLNNLSK | not soluble
5 | GAVFEFDNLAPMLATHGTVAGLKASQWAFEGKWDGYRLLVEADHGAVRLRSRSGRDVTAEYPQLRALAEDLADHHVVLDGEAVVLDSSGVPSFSQMQNRGRDTRVEFWAFDLLYLDGRALLGTRYQDRRKLLETLANATSLTVPELLPGDGAQAFACSRKHGWEGVIAKRRDSRYQPGRRCASWVKDKHWNTQEVVIGGWRAGEGGRSSGVGSLLMGIPGPGGLQFAGRVGTGLSERELANLKEMLAPLHTDESPFDVPLPARDAKGITYVKPALVAEVRYSEWTPEGRLRQSSWRGLRPDKKPSEVVRE | soluble
6 | SSGNHIFKGRAAGIAVNENGKGLITENVIRENQWGGVDIRRGGIPVLRSNLICFGYSDGVVVGDEGKGLIEGNTIYANKGCGVWMMSSSLPHVTSNHVSYNGLYGVAVFSQKDGSSELPRGHRAQENFSEDGDAILWETELEKEDDPLRRPITIALVESNSINHNGASGLYVQSSEALHVITNVIHANGDRGITVAQSSQPTRVANNSISCNRQSGVKVEAQCKVELRGNGIYDNRGHGIITKGDSTIVIENDIIGNRGSGLQLLPRSDTKVIKNRIHSFRAYGIAVRGRAKALVQENIIFQGKTSKTIFQQISNNRECIMQNNKFLVFKKKSDTWR | soluble
7 | MAFEGLADRLQQTMQKIRGKGKVSEADVKEMMREVRLALLEADVNFKVVKDFVKRVSERAVGQDVMKSLTPGQQVIKVVQEELTELMGGEQSKIAIANKPPTVIMMVGLQGAGKTTTTGKLANLLRKKHNRKPMLVAADIYRPAAIKQLETLGKQLDMPVFSLGDQVSPVEIAKQAIAKAKEDHHDYVLIDTAGHLHIDEELMDELAKVKEVAKPDEIFLVVDAMTGQDAVNVAQSFHEQLGLTGVVLTKLDGDTRGGAALSIKAVTNTPIKFAGMGEKLDALEAFHPERMASRILGMGDVLTLIEKAQATVDEEKAKELEQKMRTLSFTLDDFLEQLGQVRQLGPLDELLGMLPGANKIKGLKNAQVDEKQIGHIEAIIRSMTKLEREQPEIINASRKKRIAKGSGTTVQEINRLIKQFDDMKKMMKTMTGMQKGKKKGLGGLKFPFM | not soluble
8 | MKTKLDFLKMKESEEPIVMLTAYDYPAAKLAEQAGVDMILVGDSLGMVVLGLDSTVGVTVADMIHHTKAVKRGAPNTFIVTDMPFMSYHLSKEDTLKNAAAIVQESGADALKLEGGEGVFESIRALTLGGIPVVSHLGLTPQSVGVLGGYKVQGKDEQSAKKLIEDSIKCEEAGAMMLVLECVPAELTAKIAETLSIPVIGIGAGVKADGQVLVYHDIIGHGVERTPKFVKQYTRIDETIETAISGYVQDVRHRAFPEQKHSFQMNQTVLDGLYGGKLEHHHHHH | soluble
9 | GPGSMVEACFLCLDSTEYMRNGDQYPTRMMAEQDAACLLANAKLQANAENTLGFLTTGGNACTVYETLTNNVDAIMTSIGSIPVNGKRCNFSSGLQIASLALSHRTNSRAEKRIVAFVGSPIGETAAELEALAKKLRKDDVAVDVVAFGVESNVELLQAFVKKVSKKENSRFLAVAARENLTDKLMSNAILLGEDLPEGAEGGGASMSGFGVDPNMDPELAMALRLSMEDEMQRQAAAAAAAASSAAPESAPASGSAATPAAPAAPAAAPVVDEDELSYENMSEEEMMRRAIALSLQDTAQGASDTASSPSVPQPATTSEACRNEEENEDDFAKGVEAALEEEEDEENRS | soluble
10 | SGANISGGSPEFDRNDDVYSRKLRLVDLPENCVALIMTRLDPPEICRLARLNRMSRRASSADFIWESKLPANYRVIAHKVFDEITLTKLIKKDLYAKLSQPNLFDDGTKELWIDKNTGRLCLSISSKALRITGIDDRRYWSHIPTDESRFQSAAYVQQIWWFEVGGEFEIQFPSGTYSLFFRIQLGKTSKRLGRRICNSEHIHGWDIKPVRFQLATSDNQQAVSLCYLNNNPGSWSHYHVGDFKVTNPDVSTGIKFSMTQIDCTHTKGGLCIDSVLILPKECAKEVIGSQ | soluble
11 | MKASYLETLDRIKDEHAEMSKHVNQQRSDIEKVALEKENMNRSYMTYAEVSNTLRSDLRKAEEINKRLQEFIMQSLAPQLSQDNQANCLAALEAFKTASPRENGNGAPALPPGFPPGAAGMLGMMPNMPFGMSPAMSQLFNQFASPHVNGGDGAGGSSGGASEAKKAKLEDPDDGELEIDVTNDDHPSTASNGGAANKNGRDSTNSVASSGASTPSIASNSRARQQQQPLAGLQGLEQMNFLAGFNPNLLRQASAAGGFNFLNDPHAQARLAAAIGQIGSRPAYSFKIVDGGVPTPTSFPPDAQKGPGIPTGLKKKMELNHGEVVCAATISRDNSRVYTGGKGCVKIWDVKESDISGATVVNRPPIASLDCLKENYIRSCKLFEDGNTLLIGGEASTVALWDLTTETKTLDLETDSQACYALAMSPDEKLLFACLADGNILIYDIHNKVKVGTLPGHQDGASCLDLSKDGTKLWSGGLDNSVRCWDLAQRKEVAKHDFASQVFSLGCCPNDEWVAVGMENNYVEVLSTTGKEKYQLTQHESCVLSLKFAHSGKFFISTGKDNALNAWRTPYGASLFQLKENSSVLSCDISFDDSLIVTGSGEKKATLYAVEY | not soluble
12 | MGSDKIHHHHHHMNELRNDLLRYLTISATDEEWGIVVTTVGYQFIPPGCAYPLSRHPEKYNFKPQTGRILNEYQLVYITKGSGYFSSQSCKSQKINAGTMILLFPGEWHSYYPDRETGWDEYWVGFRGIHIDKRVEKKFFTKEEPLHRIGLSATIVGLYEDILKFASEEKSGYQQMISSIVLHILGSVYYKEKNNSFTNTYVVDKINEARILMKENIEDPLSPEEIAARLGLGYSWFRRMFKEYTGVSPAQYQLQQKLLRAKELLTSTPLTISEIAYSLHFENAGQFSTFFKKKEGVTPSEFRDRTH | not soluble
13 | MGSDKIHHHHHHMDYRQPDLSVITVNYNGFHDTCEFIDSWAATVFSVSYEMIVIDNGSTANEAALLQKTYPFIQAVRSERNLGFAGGNNLGINLAKGKYLFLLNNDVCMVKDAIPLLIKRLLSSDKIAGVSPLIRDYAEPHAIQFAGYTQLSPITLRNRAIGKGKINKDHYPAQKTPYLHGAAMLLKKTIIDKLSLMPEEYFLYYEELDWCTYINREGYELWYDPACEIWHKDSSSTGKESPLKYYYLSRNRLLYAYRNLFDWKLPVSILYQTMIVCPKNILTALGKGKKAIAKAHWEGTKAFFKLRNKDKQP | not soluble
14 | LEMKGKRMSVTAVMRELEKEENLYRRSGGGITLSGGEPLAQPEFARELLKACKAKGWHTAIETSGFTTKAVIDEVFPYVDLALTDIKAIDPEIHERNTGVNNRVILENLLRISFLTKVVVRIPVIPGVNDNSQEIHNIAEFARLMQNVDTIHLLPYHSFGENKYNLLGRQYPMGDTKSIEESQMAELKAMVESLGFNCHIGG | not soluble
15 | GIDTVGGKMTVCQLYDKKNSQRKNIKRATEKGRQYLMNALKNDPLGMRAIDTVKQSDAKEWAIRMSEKGYAYKTIDNYKRSLKASFYMAIQDDCIRKNPFDFKLSDVLEDDTEQKVILTPEQEERLLAFMEKDKIYSKYYDEVVLLLETGLRISEFCGLTMHIDMQNRILNIDHQLLKDSEIGYYIETPKTKNGKRELPLTERAYQAIQRILKSRGKAQPLIVGGYSNFLFLNREGLPKVAGNYEGMVRGLIKKYNKYHTDKLPNITPHSFRHTYCTNMANRGMNPNTLQYLMGHANITMTLGYYAHGTFQSAKAELERLAC | not soluble
16 | MTKCPKCKKIMLTKELDKNMRVCMNCDYHFPMNAKQRIESLMDEQSFEEFNQGMLSENPLGFPGYLEKLEKDREKTSLNEAVVTGKGTIGGHPAVVAVMDSSFRMGSMGSVVGEKITLAIEKAKADKVPFIIFTASGGARMQEGVLSLMQMAKTSSALKLFSEEQGLIISVMTHPTTGGVSASFASLGDYNFAEPGALIGFAGRRIIEQTIGEKLPEDFQTAEFLLKHGQLDAVIHRDDMKKTLENLLDMHQTGGDIEWLQDLEHHHHHH | not soluble
17 | MGSDKIHHHHHHMTNETTTSILEYADTHLKFSMEDLFAYLHKKIGINKSSLAWYLFKLVNENKLVRTGRGMYARILKPSFAPQPAEEVKEVYDLLTTHFPFAKFCIYQGEIIAPLQHHLSPNRIIYVETDRGTAETVFHLLKDDYQDVYLRPNKEMIYRYVDMDSRVFIVKNLVSEAPLQHISGVPIPTLEKLLVDILRDVDFFYLQGSESERIIENAFNLYAINRSRLFRYAGRRKVKEELSTILENLNIV | not soluble
18 | MKIEAISTTIVDVPTRRPLQMSFTTVHKQSYVIVQVKAGGLVGIGEGGSVGGPTWGSESAETIKVIIDNYLAPLLVGKDASNLSQARVLMDRAVTGNLSAKAAIDIALHDLKARALNLSIADLIGGTMRTSIPIAWTLASGDTARDIDSALEMIETRRHNRFKVKLGARTPAQDLEHIRSIVKAVGDRASVRVDVNQGWDEQTASIWIPRLEEAGVELVEQPVPRANFGALRRLTEQNGVAILADESLSSLSSAFELARDHAVDAFSLKLCNMGGIANTLKVAAVAEAAGISSYGGTMLDSTVGTAAALHVYATLPSLPYGCELIGPWVLGDRLTQQDLEIKDFEVHLPLGSGLGVDLDHDKVRHYTRAA | soluble
